Measured values: US20190144863

Target: EZH2 (UniProt Q61188)
Assay: filter
Conditions: negative control RNA

Chain of EZH2 (Q61188 whole entry): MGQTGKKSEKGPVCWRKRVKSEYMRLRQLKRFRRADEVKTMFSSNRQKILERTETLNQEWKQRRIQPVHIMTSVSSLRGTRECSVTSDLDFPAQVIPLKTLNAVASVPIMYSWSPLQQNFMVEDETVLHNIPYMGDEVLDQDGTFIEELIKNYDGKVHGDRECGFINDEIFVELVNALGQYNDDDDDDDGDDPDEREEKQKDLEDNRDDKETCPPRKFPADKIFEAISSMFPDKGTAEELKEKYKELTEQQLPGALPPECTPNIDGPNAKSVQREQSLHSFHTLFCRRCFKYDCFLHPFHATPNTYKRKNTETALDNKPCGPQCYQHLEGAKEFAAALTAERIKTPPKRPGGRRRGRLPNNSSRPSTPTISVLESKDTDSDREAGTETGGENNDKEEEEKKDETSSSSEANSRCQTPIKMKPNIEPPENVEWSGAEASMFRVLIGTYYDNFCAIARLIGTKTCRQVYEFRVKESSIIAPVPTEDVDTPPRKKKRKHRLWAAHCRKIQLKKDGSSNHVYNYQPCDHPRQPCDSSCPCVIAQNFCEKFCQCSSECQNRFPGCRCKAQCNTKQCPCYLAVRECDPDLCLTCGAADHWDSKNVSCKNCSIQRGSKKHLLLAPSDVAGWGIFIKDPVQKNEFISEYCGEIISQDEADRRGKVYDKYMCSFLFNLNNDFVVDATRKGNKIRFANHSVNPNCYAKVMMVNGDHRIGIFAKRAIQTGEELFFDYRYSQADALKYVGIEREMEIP

## P4P6 RNA
  Kd: > 3000 nM
